The target in series [1] is T1, wild-type FlaI, Sulfolobus acidocaldarius (Sulfolobus acidocaldarius), Q4J9L0.
T1 chain: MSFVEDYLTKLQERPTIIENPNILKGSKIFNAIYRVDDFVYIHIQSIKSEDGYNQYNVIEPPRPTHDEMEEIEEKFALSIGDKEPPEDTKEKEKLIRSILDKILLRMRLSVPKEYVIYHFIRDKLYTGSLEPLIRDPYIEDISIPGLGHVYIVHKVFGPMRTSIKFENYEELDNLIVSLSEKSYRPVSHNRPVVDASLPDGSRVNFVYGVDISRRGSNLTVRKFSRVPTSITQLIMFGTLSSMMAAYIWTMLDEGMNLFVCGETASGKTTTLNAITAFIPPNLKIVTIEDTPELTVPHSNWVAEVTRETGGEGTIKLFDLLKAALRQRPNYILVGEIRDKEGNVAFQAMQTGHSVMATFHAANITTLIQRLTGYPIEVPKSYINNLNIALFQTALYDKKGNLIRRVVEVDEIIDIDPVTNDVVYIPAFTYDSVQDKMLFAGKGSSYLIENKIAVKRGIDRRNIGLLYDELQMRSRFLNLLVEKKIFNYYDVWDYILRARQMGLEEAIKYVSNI
Kind of series: crystal structure. The settings on record: remark: other sources report otherwise.

The series “SEC” deals with the molecule itself. Kind of series: SEC. A general note: Size exclusion chromatography separates by hydrodynamic size, large species first.
The series “crystal structure” concerns the molecule itself. Nature of the series: crystal structure.

We go through four molecules from PMC3615136 (Molecular cell, 2013).

B1: wild-type FlaI, Sulfolobus acidocaldarius, Q4J9L0 1-513 (enzyme)
chain: MSFVEDYLTKLQERPTIIENPNILKGSKIFNAIYRVDDFVYIHIQSIKSEDGYNQYNVIEPPRPTHDEMEEIEEKFALSIGDKEPPEDTKEKEKLIRSILDKILLRMRLSVPKEYVIYHFIRDKLYTGSLEPLIRDPYIEDISIPGLGHVYIVHKVFGPMRTSIKFENYEELDNLIVSLSEKSYRPVSHNRPVVDASLPDGSRVNFVYGVDISRRGSNLTVRKFSRVPTSITQLIMFGTLSSMMAAYIWTMLDEGMNLFVCGETASGKTTTLNAITAFIPPNLKIVTIEDTPELTVPHSNWVAEVTRETGGEGTIKLFDLLKAALRQRPNYILVGEIRDKEGNVAFQAMQTGHSVMATFHAANITTLIQRLTGYPIEVPKSYINNLNIALFQTALYDKKGNLIRRVVEVDEIIDIDPVTNDVVYIPAFTYDSVQDKMLFAGKGSSYLIENKIAVKRGIDRRNIGLLYDELQMRSRFLNLLVEKKIFNYYDVWDYILRARQMGLEEAIKYVSNI
Take B1: in series [1], the stoichiometry N (in general, the number of molecules, sites or subunits per partner or assembly) stood at 6.

B2: FlaI^N190E/E336A interface mutant in the Walker B background (enzyme, Sulfolobus acidocaldarius, UniProt Q4J9L0 1-513, looked up)
chain: MSFVEDYLTKLQERPTIIENPNILKGSKIFNAIYRVDDFVYIHIQSIKSEDGYNQYNVIEPPRPTHDEMEEIEEKFALSIGDKEPPEDTKEKEKLIRSILDKILLRMRLSVPKEYVIYHFIRDKLYTGSLEPLIRDPYIEDISIPGLGHVYIVHKVFGPMRTSIKFENYEELDNLIVSLSEKSYRPVSHERPVVDASLPDGSRVNFVYGVDISRRGSNLTVRKFSRVPTSITQLIMFGTLSSMMAAYIWTMLDEGMNLFVCGETASGKTTTLNAITAFIPPNLKIVTIEDTPELTVPHSNWVAEVTRETGGEGTIKLFDLLKAALRQRPNYILVGAIRDKEGNVAFQAMQTGHSVMATFHAANITTLIQRLTGYPIEVPKSYINNLNIALFQTALYDKKGNLIRRVVEVDEIIDIDPVTNDVVYIPAFTYDSVQDKMLFAGKGSSYLIENKIAVKRGIDRRNIGLLYDELQMRSRFLNLLVEKKIFNYYDVWDYILRARQMGLEEAIKYVSNI
Take B2: the binding result in the series “SEC” is “binds”.

B3: FlaI Walker B mutant (FlaI^E336A), full-length, Sulfolobus acidocaldarius (enzyme, UniProt Q4J9L0 1-513, looked up)
chain: MSFVEDYLTKLQERPTIIENPNILKGSKIFNAIYRVDDFVYIHIQSIKSEDGYNQYNVIEPPRPTHDEMEEIEEKFALSIGDKEPPEDTKEKEKLIRSILDKILLRMRLSVPKEYVIYHFIRDKLYTGSLEPLIRDPYIEDISIPGLGHVYIVHKVFGPMRTSIKFENYEELDNLIVSLSEKSYRPVSHNRPVVDASLPDGSRVNFVYGVDISRRGSNLTVRKFSRVPTSITQLIMFGTLSSMMAAYIWTMLDEGMNLFVCGETASGKTTTLNAITAFIPPNLKIVTIEDTPELTVPHSNWVAEVTRETGGEGTIKLFDLLKAALRQRPNYILVGAIRDKEGNVAFQAMQTGHSVMATFHAANITTLIQRLTGYPIEVPKSYINNLNIALFQTALYDKKGNLIRRVVEVDEIIDIDPVTNDVVYIPAFTYDSVQDKMLFAGKGSSYLIENKIAVKRGIDRRNIGLLYDELQMRSRFLNLLVEKKIFNYYDVWDYILRARQMGLEEAIKYVSNI
Turning to B3, in the series “crystal structure”, the “stoichiometry N” value is 6.

B4: FlaI^R307K/E336A interface mutant in the Walker B background (enzyme, Sulfolobus acidocaldarius, UniProt Q4J9L0 1-513, looked up)
chain: MSFVEDYLTKLQERPTIIENPNILKGSKIFNAIYRVDDFVYIHIQSIKSEDGYNQYNVIEPPRPTHDEMEEIEEKFALSIGDKEPPEDTKEKEKLIRSILDKILLRMRLSVPKEYVIYHFIRDKLYTGSLEPLIRDPYIEDISIPGLGHVYIVHKVFGPMRTSIKFENYEELDNLIVSLSEKSYRPVSHNRPVVDASLPDGSRVNFVYGVDISRRGSNLTVRKFSRVPTSITQLIMFGTLSSMMAAYIWTMLDEGMNLFVCGETASGKTTTLNAITAFIPPNLKIVTIEDTPELTVPHSNWVAEVTKETGGEGTIKLFDLLKAALRQRPNYILVGAIRDKEGNVAFQAMQTGHSVMATFHAANITTLIQRLTGYPIEVPKSYINNLNIALFQTALYDKKGNLIRRVVEVDEIIDIDPVTNDVVYIPAFTYDSVQDKMLFAGKGSSYLIENKIAVKRGIDRRNIGLLYDELQMRSRFLNLLVEKKIFNYYDVWDYILRARQMGLEEAIKYVSNI
With B4, the binding result in “SEC” is on record as “binds”.
